The target in data set [1] is ubiquitin-activating enzyme E1 (yeast Uba1) (yeast, UniProt P22515 1-1024). Description: cross-linking; UBE2J2 proteoliposomes (10% or 60% SFAs, P/L = 1:32,000) incubated with E1 ± BMOE; with or without pre-incubation with low OG; SDS-PAGE and fluorescence scanning. The following applies: both partners purified.
Data set [2] deals with the molecule itself. In words: FRET or BRET; donor UBE2J2_(A488) and acceptor UBE2J2_(A594) co-reconstituted in liposomes with 10% or 60% SFAs (P/L = 1:20,000 and 1:5000); 37 °C; 20 mM HEPES/KOH pH 7.4, 150 mM KCl, 5 mM magnesium acetate, 0.1 mM TCEP, 0.2 mg/mL BSA; excitation 480 nm, I614/I516. For orientation: BRET reads energy transfer from a luciferase to a nearby fluorophore.

ubiquitin-activating enzyme E1 (yeast Uba1), sequence (P22515 whole entry): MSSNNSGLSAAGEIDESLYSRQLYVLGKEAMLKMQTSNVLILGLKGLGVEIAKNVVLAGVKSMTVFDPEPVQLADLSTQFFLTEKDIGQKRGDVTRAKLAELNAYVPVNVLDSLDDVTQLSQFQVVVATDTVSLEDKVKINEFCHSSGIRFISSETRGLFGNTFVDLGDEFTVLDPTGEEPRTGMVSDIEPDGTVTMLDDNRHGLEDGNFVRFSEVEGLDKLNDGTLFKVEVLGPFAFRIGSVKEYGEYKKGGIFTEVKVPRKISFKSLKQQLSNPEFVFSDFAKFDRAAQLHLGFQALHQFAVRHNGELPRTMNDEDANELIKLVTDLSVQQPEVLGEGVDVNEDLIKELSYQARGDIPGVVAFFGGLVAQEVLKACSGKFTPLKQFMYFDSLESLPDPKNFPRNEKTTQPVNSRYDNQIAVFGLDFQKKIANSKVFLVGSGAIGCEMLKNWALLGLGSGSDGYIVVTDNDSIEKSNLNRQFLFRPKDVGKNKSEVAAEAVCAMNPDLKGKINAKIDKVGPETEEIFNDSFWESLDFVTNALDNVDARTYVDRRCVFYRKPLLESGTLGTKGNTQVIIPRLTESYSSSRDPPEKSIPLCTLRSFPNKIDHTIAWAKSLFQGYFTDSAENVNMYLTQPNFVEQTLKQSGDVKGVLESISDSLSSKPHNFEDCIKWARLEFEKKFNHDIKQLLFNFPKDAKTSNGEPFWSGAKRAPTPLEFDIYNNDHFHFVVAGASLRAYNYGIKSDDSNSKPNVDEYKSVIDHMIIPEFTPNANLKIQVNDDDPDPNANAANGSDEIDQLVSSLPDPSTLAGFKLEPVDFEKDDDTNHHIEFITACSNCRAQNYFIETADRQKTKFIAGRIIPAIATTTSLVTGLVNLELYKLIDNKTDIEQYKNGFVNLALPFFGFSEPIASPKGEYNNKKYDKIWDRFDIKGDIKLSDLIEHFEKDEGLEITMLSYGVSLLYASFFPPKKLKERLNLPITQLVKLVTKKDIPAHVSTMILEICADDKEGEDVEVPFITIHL

B1: UBE2J2 (full-length, membrane-anchored, fluorescently labeled, reconstituted in liposomes) (enzyme, human, UniProt Q8N2K1 1-259, looked up)
chain: MSSTSSKRAPTTATQRLKQDYLRIKKDPVPYICAEPLPSNILEWHYVVRGPEMTPYEGGYYHGKLIFPREFPFKPPSIYMITPNGRFKCNTRLCLSITDFHPDTWNPAWSVSTILTGLLSFMVEKGPTLGSIETSDFTKRQLAVQSLAFNLKDKVFCELFPEVVEEIKQKQKAQDELSSRPQTLPLPDVVPDGETHLVQNGIQLLNGHAPGAVPNLAGLQQANRHHGLLGGALANLFVIVGFAAFAYTVKYVLRSIAQE
modifications: fluorescent label at the C-terminus by sortase A (fluorophore-conjugated GGC peptide): DL680; Alexa Fluor 488 or Alexa Fluor 594 in the FRET assay
notes: UBE2J2, human, ubiquitin-conjugating enzyme E2 J2 with C-terminal transmembrane segment; The same construct carries different C-terminal dyes in different experiments; also called UBE2J2_(DL680); UBE2J2_(A488)
With B1, the binding result in data set [1] and in data set [2] was “binds” in each case.

B2: UBE2J2^F137E (membrane-anchored, reconstituted in liposomes) (enzyme, human, UniProt Q8N2K1 1-259, looked up)
chain: MSSTSSKRAPTTATQRLKQDYLRIKKDPVPYICAEPLPSNILEWHYVVRGPEMTPYEGGYYHGKLIFPREFPFKPPSIYMITPNGRFKCNTRLCLSITDFHPDTWNPAWSVSTILTGLLSFMVEKGPTLGSIETSDETKRQLAVQSLAFNLKDKVFCELFPEVVEEIKQKQKAQDELSSRPQTLPLPDVVPDGETHLVQNGIQLLNGHAPGAVPNLAGLQQANRHHGLLGGALANLFVIVGFAAFAYTVKYVLRSIAQE
modifications: fluorescently labeled (UBE2J2 variants were fluorescently labeled after affinity purification)
notes: UBE2J2, human, with F137E; also called UBE2J2 F137E mutant
In the case of B2, the binding result in data set [1] is listed as “binds”.

The values are drawn from paper PMC12511567, “UBE2J2 sensitizes the ERAD ubiquitination cascade to changes in membrane lipid saturation” (Nature Communications, 2025).
